Assay: soluble on expression in E. coli; label from the status in PepcDB or PDB records

Soluble on expression in E. coli, not soluble:
MGSDKIHHHHHHMASNITGFELFKSNPNWQELPDSFWEFCSAHGRVRHYAAKQFLFFFGEESNSVYFLLKGRIQILLMSEFTEKIFRILQPPAFFPEVVLDSKTYPYAALTAEASDVFVLDRKALVQYFKENPSTLLPFYQNMALDLRRAYRQIKNIALGDARSRLGAKLFALAHVHGQETPEGILITVPLTATELAGMCSLARESVSRILSELRDLGILKMEKKQITISDLEQLRSWIHERQNSL
MGSDKIHHHHHHMASRLPPLNALRAFDASARQLSFTRAAEELFVTQAAISHQIKSLEDHLGIKLFMRKNRALLLTEEGQSYYLDIKDIFTSLHEATERLLARGAKGAITVSSQASFAIQWLVPRLTAFNSLHQDIDVRIKAVDQPENSLTEDVDIAIYYGRGRWPNIHADKLHTEYLIPVCSPLLVQENAANGKPPLLTLEDLSEHTLLHDTSRKDWKRWFKQVGVKGANVNHGPIFSHSAMVLQAALHGQGIALAYSVLAKPDIDSGRLVCPFNDVLVSKNAYFIVCRENQKDIGKITAFREWMLDMVEAEQAQITDGQIS
MGSDKIHHHHHHMATLLLEDGTIESNLDEIARELAPLGVYIKHYDPGTSILFPHLLIQDALTDKEKCHIVDLHNSVFEFIQQENGYLWCDLLNVHPGSPNLQTLIATYAKYHTHTAPEALYVLAGEMIFGFVKPDGSQVQLLVQSQDYLHIPSGVEHWCSLTASLSFKAVRYFTAADGWVPNYTGTQLNDSLNK
MGSDKIHHHHHHMATLSDFNRDGKRYVALNGVGDDQDQSILFDHVSSYDLIRSFVDANCNWSRVLESRKNQWKPSILPEADGLAYNPPGKPEDIRNCTVSAFGNTHKTINNSLSSQKDVDWFYKGNGTTVIGTDHPLISNLNSYGCGIEIEYAAVFMINAAGDPVYIGYTIANDFSDAEMRRRMPSLANLSKLATTSFGRFLFLAPIPTKTEIACTILRHGKPAWRVNGQLGSEAMKYSFSYLNELLFQNQSIKGDAYTIHYMLLGASISSNKAEFDMKHSDIILVHDEDNNVILRNEYIDEAIVCACC
MGSDKIHHHHHHMATLSRLFIHPVKSMRGIGLTHALADISGLAFDRIFMVTEPDGTFITARQFPQMVRFTPSPLHDGLHLTAPDGSSALVRFTDFTPQDAPTEVWGNHFTARVAPTAINQWLSGFFSRDVQLRWVGPQLTRRVKRHNAVPLGFADGYPYLLTNEASLRDLQQRCPAGVQMEQFRPNLVVSGVAAWEEDSWKVLRIGDVIFDVVKPCSRCIFTTVSPEKGQKHPSGEPLATLQAFRTALDNGDVDFGQNLIARNSGVIRVGDEVEILATAPAKAYGATTVDNSVTPEKHPDASVTIDWQGQTFCGNNQQVLLEQLENQGIRIPYSCRAGICGCCRIRLLEGEVSPLKKSAMGDDGTILSCSCVPKTALRLEN
MGSDKIHHHHHHMAVVDEAKLRYLDFLSREDRVRHHRYVEEMKQYDMMRSGDINAIAESTRLWNSGLYGYLSDDPLKNAKYRFVTTITLATRFAIEGGMDEEDAYNASDLYIQNLENCKTPDDVRRLHTDMMTFFTWAMADMQKAETHSKAVNECLDYIHYHLHEKITVPILAEHVHLNPTYLSELFKRETGTAISQYITDKRMEAAENMLKYSEYSFDEIAQILAYRSQSHFSKVFKKHSGMTPGEYRTKYAQNGIWPE
MGSDKIHHHHHHMCEISVVMPVYNAEMHIKDAIESVLEQSFVDFEFILIDDGSTDHTSSIIQSYNDKRVRLIQNSHNFIESLNLGIENSLGKYMARMDGDDIMHIDRLKIQYAIMQEYPDVTVCGTWMNSIGTYSQTNGLLSTLSGWVEQPLLKFTKGNFLFHPTTMIRMDFLKKNALKYENYPYAEDFKFWVEIAKSGGRFYIDSQPLLYYRISDSQVSSQKSSEQRATTESIINEVLEYLMELNKNEYPELAAAYGDLCKLYEKQLLTKCEVLTLFQTLFSKNEKKLNL
MGSDKIHHHHHHMCVKKGESSITSLVSAFGRAYHSEFDSPKIFDDYVAKEFISPKERSDIETNMVQGIHFFNTDIAEQFQDNPKEILKWITQVQLSPTPLARAAYCERVLLHEITLGAKQYVILGAGLDTFSFRHRELENKIEIFEVDHPSTQQFKKERIKEAELEVPNNLHFVSMDFTKGFSYEQLRNEGFEHKKTFFSLLGVSYYLTKEELASLIECLFEMVPEGSSIVFDYPDENLFTEKGLSNRVENMVKMAAVGGEPMKSCYSYAEMEALLEKAGLLIYEHLSPEDINAFYFEGRNDYLKAFETVHYVHAVKK
MGSDKIHHHHHHMCYTPACLFSRVLHSSTRWRGGRVVECVALEKRSTRKGTVGSNPTLFAKKEAPRPAQQAGFSFVDSVSQVSGAAIVQPMTRFAWTPETIPWQETAPDGTRYALLEGVREAGTFTYAFFLPAGFWDEAHWHSTDARVFVMQGELRLGYGDRLDKEAATSYPAGSALLVPAEHRHHDGAEVDTLILGVASGSWFTRYVNSANQGSAGTV
MGSDKIHHHHHHMDAPSRSHLASPILVANYRSLPSFMYRDSLPEAAVSPQLLALNTRLLETLEQDLAWFNSSDALEQLSGKTYYGSNLPFALAYSGHQFGGWSPVLGDGRAHVLGQLKTAADELIDVQLKGSGATPFSRGGDGRATLGAVIREYLLSEAMAGLNISTTGSLAVIATGEDVWRNGAYPGAILVRTAKSHLRVGSFQYAAVHQGPEAVKTLADFALAQYYPELSHDENPYQALLAQVIKGQAELVAQWMLVGFIHGVMNTDNSSITGETIDYGPCAFMDEFNPNKVFSSIDSQGRYAWGNQGAIAQWNMARLGETLLPLLDSDEAKALEIAQAQLGDFNRLFAEHFYQGMARKLSLDASDPELIPFVDSTLQLMTNTRVDFCQFFNALTEYHSTHREQDAGLVALFSTEAFPSLSSTPAQLLQDWLSQWQAKACDSQAALAAMIKANPKFIARNHKVEAAISAAEQNNDYSLFLDMARVLANPYVLAEQDKHYQDAPTPDQRVKQTFCGT
MGSDKIHHHHHHMDARSLISLIPSLSAYKWYGKVTRVIGLTIEAKGPQASIGELCYILVGKQGTKVMAEVVGFKEERVLLMPLNGTAEIAPGSLVEGTGRPLQVKVGYSLIGHVIDGCGRPLTGEALPNGLTPYPTDNPPPNPISRPRIKEAMHLGVRAIDGLLTVGKGQRVGIFAGSGVGKSTLLAMLAKNAAADLNIIALIGERGREVKDFIERDLGEDGLRRSIIVVATSDQPALMRIKGAMTATALAEYFRDQGLHVNLMMDSVTRFAMAQREIGLAVGEPPTTKGYTPSVFALLPKLLERAGTNGKGSITGFYTVLVDGDDLNEPISDTVRGILDGHFVLDRELANKGHYPAINILKSVSRVMNDIVTDEQKRAAEHVRSLLSVYKESEDLINIGAYKRGSSKQIDEAIERQPEVISFLRQNTDEVAIAEHSIQQLIQAFGKGD
MGSDKIHHHHHHMDASKNSDFKDTWLVVPCYNEATVIREVLENALKTFPNIVAVNDGSPDNSAEEIHAAGAHLVNHPVNLGQGAAIQTGIEYARKQPGAKYFVTFDADGQHQVKDVIRMVERLRAEDVDIIVGTRFGRPRQADDQVPLIKRLVLRTVVLLSPKTRRLGLTDAHNGLRVFNQKVAQEMNIRMNGMSHASEIVDQIDERGWRISEEPVDILYTEYSMSKGQSLLNGVNILADGFLARRLP
MGSDKIHHHHHHMDDQLNALRDLAIPFPITASFRQQARAYASQYFTQDTHERVYLNTLAVLVANAYFRLLNFQTNLTKAERWNAACRVWSEANEIELVGLGNLECRVITAGQQTIILPPETWADRIGYLFVEITSSEKVATLIGFLPAFDAETSGEEVAISTTGYAYADLKSMDEAMDYLTQQEASARSKTGEIDNLTRDFAAKKITYLRNWLNNVYDSDWEPAMRELSAATCKKKIQLVGQVFEMQLSVSQSNGAITVTVIVRLESGFLPIGIQVSVPDESEIYTETVSTPADLIRIPLEFSPGEEFWVELRWGETFTREYFIA
MGSDKIHHHHHHMDEYNFIVEKLQELGLTKREAEVYLAILMKNGATVKDLLETLDVHQPQLYNIIQSLIRKGFIRASAGRPRVYTANDITALIDVQKMKLDSLKRILQEELGKIRENEGEEPYISYVRSLEGVLASAIETINSAEVEIRAELPYQIYKELSPYFVSALRRGINLYLLVYPTTKSFIELADFKNQIKVKTSELGNFLLIISDLHRAVYSKRRFFTIHKLPISENEVYGYIIHEKDLLLRLLNIHNNLWVKAKEIIGWIPGPEVYPKTFIDFSMALNELEALLRLGYTPIVRVLGRDVKSEYPIEVSGRVRAVNRIGIVSNFILESNEGTFTVGGFDAEIEDIEAQRVIIEKVEREGGKKP
MGSDKIHHHHHHMDFDMIEEKKDSVIVRNVENFELKDIFDCGQCFRWHRQENGNYIGIAFEKVVEVQKIGEDVVIYNINEEEFKNVWSEYFDLYRDYGEIKKELSRDPLLKKSVDFGEGIRILRQDPFEILLSFIISANNRIPMIKKCINNISEKAGKKLEYKGKIYYAFPTVDKLHEFTEKDFEECTAGFRAKYLKDTVDRIYNGELNLEYIKSLNDNECHEELKKFMGVGPKVADCIMLFSMQKYSAFPVDTWVKKAMMSLYVAPDVSLKKIRDFGREKFGSLSGFAQQYLFYYARENNIQL
MGSDKIHHHHHHMDGSLNGETWRFIVRNIRIGVVEDDPASCQLVLDYLNRYQSETGEQFTVSVFDDGARIVEKYAPVYDILLLDIEMKEIDGMAAARRIRERDDNVVIIFITAAPQYAISGYEVRALSYLLKPLPWFAFSQELKKSIDMVRRNGDDSMLIETGKGQMRMNLTDILYLESIRHTIVIHTLDGKYSINGTLKDMEAKLADRHFFRSNSCYLVNLKHVTGVADQDCIMSDDERLRVSRPRKKAFLAALADYMGGGR
MGSDKIHHHHHHMDINFEYYKIFYYVAKYCNFTKAARALGNSQPNVTRAMNNLEQQINSILFIRNNRGVQLTPEGERLYAHVSAAMSQILAAEEELSDSIGLSHGSVSIGASETALNIYLLDRLKPFHMAYPGIRLKIYNHSTPQAINAVKNGMIDFAVVSTPAEVEAPLKMIKLGSFQEILVGGTTFTALGSQTLSLKELHNYPLIGLGRETMTFQFFNRLFMSHGLEFAPDTETATTDQILPLVKSELGLAFMPKPMAEAAIANREIVEIALEEEIPQRNICMVYDIHQPISAAARELKKVISDSHKV
MGSDKIHHHHHHMDKELDLAVTCYGKVKPLKYDLVLLPWGATEPHNLHLPYLTDCILSHDIALDAAKLAKTHYGIRCMVMPYVTAGSQNPGQRELDFCIHYRYETQKAILSDLVASLYAQGYRKMVIINGHGGNTFKSMIRDLSLDYPDFLIASSEWFAFIPAKEYFDEPGDHADELETSVMMHYHPELVNLDEAGDGNYKKFASQMLNEKVAWIPRNWQNVSQDTGIGNPKKASAGKGKKYAEAVVAKYALLFEELVHKELY
MGSDKIHHHHHHMDLNEIIEKLKDILSEEKEGQKVLDRDVALALHIHPQSFACMKSRQKIPYEEILAFCAKRKISANWLFYNQAPESLIDTTNQYCYIRYFSQVHASAGGGAFNDTEACERIKLDAFWVERLGGEKEIKQIEAIAVTGDSMEPTLEDGDLIFIHRQKRQISKGGIFVIQTPHGIFVKRLQERLDGGVDILSDNSLYPTQTLERDGIEVIGRVVGALKNLE
MGSDKIHHHHHHMDLRQIRTFVYIAELRSYTRAAAFLHVSQPALSRQMRLLEEELRLKLFLRHGHGVELTNEGVAFFARCRDVLSEFEQLRHDFRSTGANKAVMGLVSVGLPAPATRFATPKLLHAARKSYPGLSVRFAEGFSALLHEWLLSGSLDLAVLFGSNTPKLLTSLPVLVEDLVAISAATKTSRKKNFVNAQDLQNTPLILPHRPHILRELIDSLHLKKVEILEVDSTSLMIELARVGDGTTILPAGSAEQSIRAGHVVALPIINPTLSWQVSICYSSVRPLSVGARVVLDLMRREIAQKVTSGEWLSGRLIRPGTEMTEGLDAAP

— the DeepSol protein solubility set
